Measurements published in IntAct's records for PubMed 18976803.

B1: Protein LDB19 (Saccharomyces cerevisiae), Q12502 (parent)
chain: MAFSRLTSTHQSNHNGYSNSNKKGQSLPLTLSIDVESPPCVLYGSAMESSGAVLSGLFTVTVVDPYSSAEDKSLKNTESNVSTTSKSLKRKSTFGSALSSRLSSLSASTSNISPSTSSTSISHSPTPANLRIMAGYTKITITSVTLSLVQKIHFHKPFVPNISSMQTCMNCKTKITNMKSWEIQSNTQDLSVGSHSYPFSYLIPGSVPCSSSLGATAETQVKYELIAVVTYIDPHRNSFSSGHSTPRKEGSSSKKRLLQLAMPIAVTRSIPRGPDKNSLRVFPPTELTAAAVLPNVVYPKSTFPLEMKLDGVSSGDRRWRMRKLSWRIEETTRVKAHACPVHKHELRQLEEQVKIKESEKSKKPRSHIKRYGELGPQIRVAVNSLENMPSQRLPGEPGREQAPNSSGPASTGNVGLDDENPVNEDEEDQPGSEFIHPSDDALRQELLMQQQRARQQQLQQELKNNSSLFTEEVRIISKGEMKSGWKTDFDNNGKIELVTEIDCMGLNSGVSNPVMHASTLQTPSTGNKKPSINVACDIQDPNLGLYVSHILAVEIVVAEETLQYANGQPIRKPNSKNKKETNNNTMNVHNPDQRLAELSPIFANRNTPKVRRMGPEDITPVNSNKSNHSTNKEKASNGASNSNIVSVPTGAARVLRMQFRLTVTERSGLGISWDEEVPPIYQDVELLSPPCYELSINNGIKNKLYSTMSTPVRSEDDFVGGSDEDIGNYESQGLEPGPNVQEVTITQNKLTIPPTAHHYQPASSSQRSLTTVQSPPLESVVSVQGSVPFRGHVLTPHSTRDIRIQNFSDFLDSNRITQ

Variants of: B1
Details: with rsp5_yeast RSP5, P39940
rsp5_yeast RSP5, P39940, sequence (P39940 whole entry): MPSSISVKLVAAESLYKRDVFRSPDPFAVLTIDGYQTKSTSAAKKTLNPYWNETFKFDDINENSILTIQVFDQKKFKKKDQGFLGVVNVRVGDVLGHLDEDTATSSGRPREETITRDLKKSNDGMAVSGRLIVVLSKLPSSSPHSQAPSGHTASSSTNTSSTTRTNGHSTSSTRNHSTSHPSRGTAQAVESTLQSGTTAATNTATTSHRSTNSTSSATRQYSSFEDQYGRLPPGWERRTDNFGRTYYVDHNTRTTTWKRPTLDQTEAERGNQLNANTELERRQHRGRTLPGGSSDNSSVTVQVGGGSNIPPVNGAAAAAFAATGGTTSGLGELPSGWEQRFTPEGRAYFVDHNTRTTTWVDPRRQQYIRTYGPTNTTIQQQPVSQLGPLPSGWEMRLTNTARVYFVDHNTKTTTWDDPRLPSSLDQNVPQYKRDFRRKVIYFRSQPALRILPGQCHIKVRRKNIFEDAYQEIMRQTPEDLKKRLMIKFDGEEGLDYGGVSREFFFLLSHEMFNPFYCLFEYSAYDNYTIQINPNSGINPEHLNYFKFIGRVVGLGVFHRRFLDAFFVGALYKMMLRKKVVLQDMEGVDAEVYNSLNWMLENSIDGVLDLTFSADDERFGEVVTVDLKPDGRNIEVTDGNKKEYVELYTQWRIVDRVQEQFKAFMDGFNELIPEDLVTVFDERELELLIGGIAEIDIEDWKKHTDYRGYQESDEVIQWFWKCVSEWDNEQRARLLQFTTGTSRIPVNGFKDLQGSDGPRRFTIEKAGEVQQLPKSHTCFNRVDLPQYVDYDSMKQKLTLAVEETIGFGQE

Row | effect of a mutation on the interaction | Variant
1 | decreasing interaction | P679A;Y681A
2 | decreasing interaction | P690A;Y692A
